This is an account of results in IntAct's records for PubMed 19955438.

B1: 1-phosphatidylinositol 4,5-bisphosphate phosphodiesterase gamma-1 (Bos taurus (Bovine)), P08487 (parent)
chain: MAGAASPCANGCGPSAPSDAEVVHLCRSLEVGTVMTLFYSKKSQRPERKTFQVKLETRQITWSRGADKIEGAIDIREIKEIRPGKTSRDFDRYQEDPAFRPDQSHCFVILYGMEFRLKTLSLQATSEDEVNMWIRGLTWLMEDTLQAATPLQIERWLRKQFYSVDRNREDRISAKDLKNMLSQVNYRVPNMRFLRERLTDLEQRTSDITYGQFAQLYRSLMYSAQKTMDLPFLEASALRAGERPELCRVSLPEFQQFLLEYQGELWAVDRLQVQEFMLSFLRDPLREIEEPYFFLDEFVTFLFSKENSIWNSQLDEVCPDTMNNPLSHYWISSSHNTYLTGDQFSSESSLEAYARCLRMGCRCIELDCWDGPDGMPVIYHGHTLTTKIKFSDVLHTIKEHAFVASEYPVILSIEDHCSIAQQRNMAQYFKKVLGDTLLTKPVDIAADGLPSPNQLKRKILIKHKKLAEGSAYEEVPTSVMYSENDISNSIKNGILYLEDPVNHEWYPHYFVLTSSKIYYSEETSSDQGNEDEEEPKEASGSTELHSNEKWFHGKLGAGRDGRHIAERLLTEYCIETGAPDGSFLVRESETFVGDYTLSFWRNGKVQHCRIHSRQDAGTPKFFLTDNLVFDSLYDLITHYQQVPLRCNEFEMRLSEPVPQTNAHESKEWYHASLTRAQAEHMLMRVPRDGAFLVRKRNEPNSYAISFRAEGKIKHCRVQQEGQTVMLGNSEFDSLVDLISYYEKHPLYRKMKLRYPINEEALEKIGTAEPDYGALYEGRNPGFYVEANPMPTFKCAVKALFDYKAQREDELTFTKSAIIQNVEKQEGGWWRGDYGGKKQLWFPSNYVEEMVSPAALEPEREHLDENSPLGDLLRGVLDVPACQIAVRPEGKNNRLFVFSISMASVAHWSLDVAADSQEELQDWVKKIREVAQTADARLTEGKMMERRKKIALELSELVVYCRPVPFDEEKIGTERACYRDMSSFPETKAEKYVNKAKGKKFLQYNRLQLSRIYPKGQRLDSSNYDPLPMWICGSQLVALNFQTPDKPMQMNQALFLAGGHCGYVLQPSVMRDEAFDPFDKSSLRGLEPCAICIEVLGARHLPKNGRGIVCPFVEIEVAGAEYDSIKQKTEFVVDNGLNPVWPAKPFHFQISNPEFAFLRFVVYEEDMFSDQNFLAQATFPVKGLKTGYRAVPLKNNYSEGLELASLLVKIDVFPAKQENGDLSPFGGASLRERSCDASGPLFHGRAREGSFEARYQQPFEDFRISQEHLADHFDGRDRRTPRRTRVNGDNRL

The variants in the experiment derive from B1. As to conditions: with itk_mouse Itk.
With E709A;K711A, the “effect of a mutation on the interaction” value is “disrupting interaction”. As for K749A;R753A, the entry is “decreasing interaction”; as for R748A;K751A, “decreasing interaction”.
